Values joined by “and” are separate entries in the source; they are usually repeats but may differ in a detail not shown here. Equal entries are not always repeated.
Key:
[1] = biological target: T1, c-Met/Fc Chimera (R&D Systems, catalog # 358-MT-100) (human, UniProt P08581 25-932); test: competition ELISA: displacement of biotinylated HGF from plate-coated c-Met/Fc chimera, Fab, n = 2
T1 construct: extracellular domain; Bought reagent; also called human c-Met-Fc fusion protein; recombinant c-Met protein; Fc part of the bought chimera not given
Description: (§1) 96-well Fluoronunc plates were coated with 50 ul of 0.5 ug/ml c-Met/Fc Chimera (R&D Systems, Minneapolis Minn., catalog # 358-MT-100) in phosphate buffered saline (PBS) and the plates were incubated overnight at room temperature. Wells were washed three times with washing buffer (PBS+0.1% Tween 20), blotting the plates on paper towels between each wash. Nonspecific binding in the wells was blocked by the addition of 250 ul of blocking buffer (3.0% milk (Carnation) in PBS) to each well and incubated at room temperature for two hours.
(§2) The c-Met antibodies were diluted in reagent buffer (PBS, 0.5% BSA, 0.05% Tween-20) and titrations were performed in 96 well polypropylene plates. Biotinylated HGF (0.4 ug/ml) (R&D Systems, biotinylated with Pierce #21335 as per manufacturer's instructions) was added to each well. 50 ul of the dilutions were transferred into the Fluoronunc plates containing human c-Met-Fc fusion protein (R&D Systems, #) and the plates were incubated for two hours at room temperature. The plates were washed three times with wash buffer and blotted onto paper towels. 50 ul of europium-labeled Streptavidin (Wallac Perkin Elmer) diluted 1:1000 in Delfia assay buffer (Wallac Perkin Elmer) was added per well and the plates were incubated for one hour at room temperature. The plates were washed seven times with Delfia wash buffer (Tris buffered saline (TBS) supplemented with 0.1% Tween-20) and blotted onto paper towels. 100 ul Delfia enhancer solution (Wallac Perkin Elmer) was added to each well and the plates incubated for 5 minutes on a plate shaker at room temperature. Plates were read on a fluorescence plate reader and analyzed using GraphPad Prism software (GraphPad Software, San Diego, Calif.).
(§3) C-Met antibodies 1A3.3.13 (#HB-11894, ATCC Hybridoma) and 5D5.11.6 (#HB-11895, ATCC Hybridoma) were used as positive controls. MOPC-21 (#M-7894, Sigma) was used as an IgG isotype control and HB-94 (#HB-94, ATCC Hybridoma) was converted into a Fab fragment and used as a Fab isotype control. NK4-Elastase is a kringle to kringle 4 fragment resulting from digesting intact HGF purified from S-114 cells with elastase (Date et al., FEBS Lett. 420:1-6 ([…]).

[2] = biological target: T1, c-Met/Fc Chimera (R&D Systems, catalog …); test: competition ELISA: displacement of biotinylated HGF from plate-coated c-Met/Fc chimera, IgG, n = 2
Description: as §1, §2, §3

[3] = biological target: T2, biotinylated c-Met-Fc (R&D Systems, #358-MT-100/CF, 5.1 biotin per c-Met molecule) (human, UniProt P08581 25-932, biotinylated, 5.1 biotin per c-Met molecule (Pierce #21335)); test: SPR (BIAcore), biotinylated c-Met-Fc captured on streptavidin chip, IgG as analyte, bivalent model
T2 construct: extracellular domain; Captured on a streptavidin (SA) chip for the BIAcore study of the IgGs; Fc part of the bought chimera not given
Description: The binding properties (on-rate, off-rate and affinity) of c-Met monoclonal antibodies (IgG or Fab versions) with human c-Met extracellular domain was determined using surface plasmon resonance, or BLAcore, technology. For the binding studies with IgG, a low density (<1 ng/mm2) of c-Met-Fc (R&D Systems, #358-MT-100/CF) containing 5.1 biotin per c-Met molecule (prepared with Pierce #21335 as per manufacturer's instructions) was captured onto a SA chip precoated with Streptavidin (BIAcore Inc.). A streptavidin flow cell without adsorbed c-Met-Fc was used as a control cell for non-specificbinding. The antibody sample to be analyzed was prepared in HEPES buffer (0.15M NaCl, 10 mM HEPES, 3.4 mM EDTA, 0.005% surfactant P-20, pH 7.4) to form a set of solutions varied in concentration from 0.78 nM to 100 nM. The HEPES buffer used as the running solution was set at a flow rate of 50 ul/min. Each sample solution was injected over the two flow cells for three minutes, followed by 5 minutes of dissociation. The flow cells were then regenerated with 4.5M MgCl₂ for one minute to remove the bound antibody for the next cycle of binding study. The net sensorgrams (subtraction of sensorgrams from the negative control flow cell as well as that from the buffer blank) obtained for each set of samples were processed simultaneously in a global fitting using a bivalent binding model of the BIAevaluation software program equipped with the system. The on-rate (Kₐ), off-rate (Kd) and binding affinity (KD) were determined from the fitting with KD equal to kd/kₐ.

[4] = biological target: c-Met (endogenous, on human cell lines 184B5, HCT-116, DU-145 and NCI H441) (human, UniProt P08581 25-1390); test: cell-based or functional assay
[5] = biological target: T1, c-Met/Fc Chimera (R&D Systems, catalog …); test: SPR (BIAcore), c-Met-Fc captured on protein A CM5 chip, Fab as analyte, 1:1 Langmuir model
Description: For the binding study of Fab fragments derived from antibodies of the invention, a high density (>2 ng/mm²) of protein A was first immobilized covalently onto a CM5 sensorchip using EDC/NHS amine coupling chemistry [. The flow cell containing c-Met-Fc captured by the protein A was used as the positive control while a flow cell containing only protein A was used as the negative control. The Fab sample to be analyzed was as above for antibodies to form a set of solutions with concentration ranged from 3.9 nM to 500 nM. The HEPES buffer used as the running solution was set at a flow rate of 50 ul/min. For each cycle of binding study, low density (<1 ng/mm²) of c-Met-Fc was captured first onto the positive flow cell. Each sample solution was then injected over the two flow cells (one negative and one positive in series) for three minutes followed by 5 minutes of dissociation. The flow cells were then regenerated with 4.5M MgCl₂ for one minute to remove the bound c-Met-Fc/Fab complexes for the next cycle of binding. The net sensorgrams (subtraction of sensorgrams from the negative control flow cell as well as that from the buffer blank) obtained from the set of samples were fitted simultaneously in a global fitting using a Langmuir 1:1 binding model of the BIAevaluation program equipped with the system. The on-rate (Kₐ), off-rate (Kd) and binding affinity (KD) were determined from the fitting with KD equal to kd/kₐ.

B1: c-Met 12075 Fab (Fab, V domains shown)
VH: QVQLVQSGPEVKKPGASVEVSCKASGYTFTGDYMHWVRQAPGQGPEWMGWINPQTGVTKYAQKFQGRVTMARDTSINTAYMELRGLRSDDTAVYYCVREDHNYDLWSAYNGLDVWGQGTLVTVSS
VL: QSVLTQPPSVSAAPGQKVTISCSGSSSNIGNNHVSWYQQLAGTAPKLLIFDNDKRPSGIPDRFSGSKSGTSATLGITGLQTGDEADYYCGTWDKSPTDIYVFGSGTKLTVLG
notes: VH and VL limits counted as for the IgG; also called Fab fragment derived from c-Met antibody 12075
- IC50 [1]: > 125 nM

B2: c-Met IgG antibody 12123 (antibody, V domains shown)
VH: QVQLQESGPGLVKPSATLSLTCAVSGGSISSNHWWSWVRQSPGKGLEWIGEIYTYGGANYNPSLKSRVDISMDKSKNQFSLHLSSVTAADTAVYYCGRHLTGYDCFDIWGQGTLVTVSS
VL: QAVLTQPSSVSGAPGQRVTISCTGSSSNIGAGYDVHWYQQLPGTAPKLLIYGNSNRPSGVPDRFSGSKSGTSASLAITGLQAEDEADYYCQSYDSSLSGVFGTGTQLTVLS
notes: IgG of scFv PGIA-3-B2; The VL reverse cloning primer RH62 codes ...TVLG whereas the scFv entry ends ...TVLS; also called 12123 IgG; IgG of scFv PGIA-03-B2 (PGIA-3-B2)
- IC50 [2]: 0.5 nM
- Kd [3]: 9.7 nM
- koff [3]: 0.00329 s⁻¹
- kon [3]: 338000 M⁻¹ s⁻¹
- scatter assay on DU-145 cells, mean object area, agonist (alone), 100 nM IgG; the smaller the number, the more scattering [4]: 234 mean object area
- scatter assay on DU-145 cells, mean object area, antagonist (w/30 pM HGF), 100 nM IgG; the smaller the number, the more scattering [4]: 226 mean object area

B3: c-Met IgG antibody 12136 (antibody, V domains shown)
VH: QVQLQESGPGLVKPSETLSLTCNVSGGSIRNYFWSWIRQPPGQGLEYIGYIYYSGTTDYNPSLKGRVTISLDTSKTQFSLKLNSVTAADTAFYYCVRGPNKYAFDPWGQGTLVTVSS
VL: SYELTQPPSVSVSPGQTASITCSGDKLGDKFASWYQQKAGQSPVLVIYRDTKRPSGIPERFSGSNSGNTATLTISGTQAMDEADYYCQAWDSSTAVFGTGTKVTVLG
notes: IgG of scFv PGIA-4-A8; also called 12136 IgG; IgG of scFv PGIA-04-A8 (PGIA-4-A8)
- IC50 [2]: 1 nM
- Kd [3]: 0.8 nM
- koff [3]: 0.000229 s⁻¹
- kon [3]: 294000 M⁻¹ s⁻¹

B4: c-Met 12136 Fab (Fab, V domains shown)
VH: QVQLQESGPGLVKPSETLSLTCNVSGGSIRNYFWSWIRQPPGQGLEYIGYIYYSGTTDYNPSLKGRVTISLDTSKTQFSLKLNSVTAADTAFYYCVRGPNKYAFDPWGQGTLVTVSS
VL: SYELTQPPSVSVSPGQTASITCSGDKLGDKFASWYQQKAGQSPVLVIYRDTKRPSGIPERFSGSNSGNTATLTISGTQAMDEADYYCQAWDSSTAVFGTGTKVTVLG
notes: VH and VL limits counted as for the IgG; also called Fab fragment derived from c-Met antibody 12136
- Kd [5]: 6 nM
- koff [5]: 0.00101 s⁻¹
- kon [5]: 168000 M⁻¹ s⁻¹

B5: c-Met 11978 Fab (Fab, V domains shown)
VH: not shown
VL: NFMLTQPHSVSESPGKTVTISCTRSSGSIAFDYVQWYQQRPGSAPTTVIYEDNQRPSGVPDRFSASIDSSSNSASLTISALKTEDEADYYCQSYDNSNSWVFGGGTKLTVLG
notes: VH and VL limits counted as for the IgG
- IC50 [1]: 65.9 nM and > 125 nM

B6: c-Met IgG antibody 12133 (antibody, V domains shown)
VH: QVQLQESGPGLVKPSGTLSLTCAVSGGSISTSDWWSWVRRPPGKGLEWIGEIYHSGSTNYHPSLKSRVTISLDKSKNQFSLKLSSVTAADTAVYYCAREGGHSGSYPLDYWGRGTLVTVSS
VL: NFMLTQPHSVSESPGKTATISCTGSGGSIARSYVQWYQQRPGRAPSIVIYEDYQRPSGVPDRFSGSIDSSSNSASLTITGLKTDDEADYYCQSSDDNNNVVFGGGTKVTVLG
notes: IgG of scFv PGIA-4-A5; also called 12133 IgG; IgG of scFv PGIA-04-A5 (PGIA-4-A5)
- IC50 [2]: 0.58 nM
- Kd [3]: 6 nM
- koff [3]: 0.000598 s⁻¹
- kon [3]: 98900 M⁻¹ s⁻¹
- scatter assay on DU-145 cells, mean object area, agonist (alone), 100 nM IgG; the smaller the number, the more scattering [4]: 241 mean object area
- scatter assay on DU-145 cells, mean object area, antagonist (w/30 pM HGF), 100 nM IgG; the smaller the number, the more scattering [4]: 230 mean object area

B7: c-Met 12119 Fab (Fab, V domains shown)
VH: QLQLQESGPGLVKPSGTLSLTCAVSGGSISTSDWWSWVRRPPGKGLEWIGEIYHSGSTNYHPSLKSRVTISLDKSKNQFSLKLSSVTAADTAVYYCAREGGHSGSYPLDYWGRGTLVTVSS
VL: NFMLTQPHSVSESPGKTVTISCARSSGSIASNYVQWYQQRPGSSPTTLIYEDRQRPSGVPDRFSGSIDSSSNSASLTISGLKTEDEADYYCQSYDSSDHVVFGGGTKLTVLG
notes: VH and VL limits counted as for the IgG; also called Fab fragment derived from c-Met antibody 12119
- IC50 [1]: 10.7 nM

B8: c-Met 12133 Fab (Fab, V domains shown)
VH: QVQLQESGPGLVKPSGTLSLTCAVSGGSISTSDWWSWVRRPPGKGLEWIGEIYHSGSTNYHPSLKSRVTISLDKSKNQFSLKLSSVTAADTAVYYCAREGGHSGSYPLDYWGRGTLVTVSS
VL: NFMLTQPHSVSESPGKTATISCTGSGGSIARSYVQWYQQRPGRAPSIVIYEDYQRPSGVPDRFSGSIDSSSNSASLTITGLKTDDEADYYCQSSDDNNNVVFGGGTKVTVLG
notes: VH and VL limits counted as for the IgG; also called Fab fragment derived from c-Met antibody 12133
- Kd [5]: 8.8 nM
- koff [5]: 0.00245 s⁻¹
- kon [5]: 280000 M⁻¹ s⁻¹

B9: c-Met IgG antibody 11986 (antibody, V domains shown)
VH: EVQLVQSGAEVKKPGATLKVSCKVSAYTFTDYSMHWVQQAPGKGLKWMGLIDLEDGNTIYAEEFQDRVTITADTSTDTAYMDLSSLRSEDTAVFYCAISPLRGLTADVFDVWGQGTLVTVSS
VL: QSALTQPASASGSPGQSITISCTGTSSDIGRYDFVSWYQRQPGKAPKLMIYDVINRPSGVSSRFSGSKSGNTASLTISGLQAEDEADYYCSSYAGSTTLYVFGTGTKLTVLG
notes: IgG of scFv PGIA-3-B1; also called 11986 IgG; IgG of scFv PGIA-03-B1 (PGIA-3-B1)
- IC50 [2]: 0.52 nM

B10: c-Met 11986 Fab (Fab, V domains shown)
VH: EVQLVQSGAEVKKPGATLKVSCKVSAYTFTDYSMHWVQQAPGKGLKWMGLIDLEDGNTIYAEEFQDRVTITADTSTDTAYMDLSSLRSEDTAVFYCAISPLRGLTADVFDVWGQGTLVTVSS
VL: QSALTQPASASGSPGQSITISCTGTSSDIGRYDFVSWYQRQPGKAPKLMIYDVINRPSGVSSRFSGSKSGNTASLTISGLQAEDEADYYCSSYAGSTTLYVFGTGTKLTVLG
notes: as for B5
- IC50 [1]: 80 nM
